4 molecules from patent EP3470426A1 (Numab Therapeutics AG, dated 2019) can be followed below.

One assay deals with human PD-L1 on cells (human, UniProt Q9NZQ7 19-290). Put plainly: cell-based or functional assay.
For assay [1], the target named is CD137 on Jurkat NFkB reporter cells (human, UniProt Q07011 24-255). Put plainly: cell-based or functional assay.

B1: PRO830 (scFv)
scFv: DIQMTQSPSSLSASVGDRVTITCQASQSINDYLAWYQQKPGKAPKLLIYKASTLASGVPSRFSGSGSGTDFTLTISSLQPEDFATYYCQQGYIITDIDNVFGTGTKVTVLGGGGGSGGGGSGGGGSGGGGSQVQLQESGPGLVKPSETLSLTCKVSGFSFSSGYDMCWIRQPPGKGLEWIGCVVAGSVDITYYASWAKGRVTISVDSSKNQFSLKLSSVTAADTAVYYCARKDAYSDAFNLWGQGTLVTVSS
With B1, in the assay with human PD-L1 on cells, the “IC50, NFAT-luciferase reporter gene assay” value was determined as 42.9 ng/mL.

B2: PRO1013 (scFv)
scFv: DIQMTQSPSSLSASVGDRVTITCQASQSIGTYLAWYQQKPGKAPKLLIYRAFILASGVPSRFSGSGSGTDFTLTISSLQPEDFATYYCQSNFYSDSTTIGPNAFGTGTKVTVLGGGGGSGGGGSGGGGSGGGGSQVQLVQSGAEVKKPGASVKVSCKASGFSFNSDYWIYWVRQAPGQGLEWMGSIYGGSSGNTQYASWAQGRVTMTRDTSISTAYMELSSLRSEDTAVYYCARGYVDYGGATDLWGQGTLVTVSS
For B2, the “IC50, NFAT-luciferase reporter gene assay” value with human PD-L1 on cells was determined as 21.3 ng/mL.

B3: PRO1059 (bispecific antibody, human IgG1, kappa, L234A L235A)
light: DIQMTQSPSSLSASVGDRVTITCQASQSINDYLAWYQQKPGKAPKLLIYKASTLASGVPSRFSGSGSGTDFTLTISSLQPEDFATYYCQQGYIITDIDNVFGTGTKVTVLGTVAAPSVFIFPPSDEQLKSGTASVVCLLNNFYPREAKVQWKVDNALQSGNSQESVTEQDSKDSTYSLSSTLTLSKADYEKHKVYACEVTHQGLSSPVTKSFNRGECGGGGSGGGGSIQMTQSPSSLSASVGDRVTITCQASQSINNVLAWYQQKPGKAPKLLIYRASTLASGVPSRFSGSGSGTDFTLTISSLQPEDFATYYCQSSYGNYGDFGTGTKVTVLGGGGGSGGGGSGGGGSGGGGSQVQLQESGPGLVKPSETLSLTCKVSGFSFSNSYWICWIRQPPGKGLEWIGCTFVGSSDSTYYANWAKGRVTISVDSSKNQFSLKLSSVTAADTAVYYCARHPSDAVYGYANNLWGQGTLVTVSS
heavy: QVQLQESGPGLVKPSETLSLTCKVSGFSFSSGYDMCWIRQPPGKGLEWIGCVVAGSVDITYYASWAKGRVTISVDSSKNQFSLKLSSVTAADTAVYYCARKDAYSDAFNLWGQGTLVTVSSASTKGPSVFPLAPSSKSTSGGTAALGCLVKDYFPEPVTVSWNSGALTSGVHTFPAVLQSSGLYSLSSVVTVPSSSLGTQTYICNVNHKPSNTKVDKRVEPKSCDKTHTCPPCPAPEAAGGPSVFLFPPKPKDTLMISRTPEVTCVVVDVSHEDPEVKFNWYVDGVEVHNAKTKPREEQYNSTYRVVSVLTVLHQDWLNGKEYKCKVSNKALGAPIEKTISKAKGQPREPQVYTLPPSREEMTKNQVSLTCLVKGFYPSDIAVEWESNGQPENNYKTTPPVLDSDGSFFLYSKLTVDKSRWQQGNVFSCSVMHEALHNHYTQKSLSLSPGK
With B3, the “IC50, NFAT-luciferase reporter gene assay” value with human PD-L1 on cells came out at 93.8 ng/mL.

B4: PRO963 (other)
chain: DIQMTQSPSSLSASVGDRVTITCQASQSINDYLAWYQQKPGKAPKLLIYKASTLASGVPSRFSGSGSGTDFTLTISSLQPEDFATYYCQQGYIITDIDNVFGTGTKVTVLGGGGGSQVQLQESGPGLVKPSETLSLTCKVSGFSFSNSYWICWIRQPPGKGLEWIGCTFVGSSDSTYYANWAKGRVTISVDSSKNQFSLKLSSVTAADTAVYYCARHPSDAVYGYANNLWGQGTLVTVSSGGGGSGGGGSGGGGSGGGGSIQMTQSPSSLSASVGDRVTITCQASQSINNVLAWYQQKPGKAPKLLIYRASTLASGVPSRFSGSGSGTDFTLTISSLQPEDFATYYCQSSYGNYGDFGTGTKVTVLGGGGGSQVQLQESGPGLVKPSETLSLTCKVSGFSFSSGYDMCWIRQPPGKGLEWIGCVVAGSVDITYYASWAKGRVTISVDSSKNQFSLKLSSVTAADTAVYYCARKDAYSDAFNLWGQGTLVTVSSGGGGSGGGGSIQMTQSPSSLSASVGDRVTITCQSSESVYSNNQLSWYQQKPGQPPKLLIYDASDLASGVPSRFSGSGSGTDFTLTISSLQPEDFATYYCAGGFSSSSDTAFGGGTKLTVLGGGGGSGGGGSGGGGSGGGGSEVQLVESGGGLVQPGGSLRLSCAASGFSLSSNAMGWVRQAPGKGLEYIGIISVGGFTYYASWAKGRFTISRDNSKNTVYLQMNSLRAEDTATYFCARDRHGGDSSGAFYLWGQGTLVTVSS
For the molecule B4, the “IC50, NFAT-luciferase reporter gene assay, with HSA” value with human PD-L1 on cells was determined as 275 ng/mL. For the same molecule, the “max. activation (%), NF-kB reporter, CHO-PD-L1, HSA yes, 24h” value in assay [1] came out at 369%.
